Measurements as given in paper PMC2883946.

How the values were obtained:
14-3-3β = 14-3-3β (UniProt Q9CQV8); test: FLAG IP, 14-3-3 isoform immunoblot; settings: reference: FLAG-AS160 wild type; sites S318,T568,S588,T642,S751
14-3-3ε = 14-3-3ε (UniProt P62259); test: FLAG IP, 14-3-3 isoform immunoblot; settings: reference: FLAG-AS160 wild type; sites S318,T568,S588,T642,S751

For “FLAG-AS160 (from UniProt O60343) FLAG-AS160 5P”, the “binding against the reference” value (14-3-3β) was “weaker” and the “binding against the reference” value (14-3-3ε) was “weaker”.
